Experimental data taken from patent US20160158380A1 (INSERM INSTITUT NATIONAL DE LA SANTE ET DE LA RECHERCHE …, published 2016).

Key:
[1] = molecular target: T1, CLDN7 (human, UniProt O95471 1-211); assay: flow cytometry on parental SW480 cells, which express CLDN7
T1 construct: whole, on cells; Species is inferred from the human SW480 cell line
T1 sequence (looked up): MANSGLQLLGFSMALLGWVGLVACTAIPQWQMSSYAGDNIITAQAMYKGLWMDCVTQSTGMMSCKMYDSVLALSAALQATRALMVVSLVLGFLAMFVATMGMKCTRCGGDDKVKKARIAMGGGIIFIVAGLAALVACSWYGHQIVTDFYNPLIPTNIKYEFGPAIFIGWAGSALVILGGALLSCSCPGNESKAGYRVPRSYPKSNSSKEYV

[2] = molecular target: T2, human CLDN8 (human, UniProt P56748 1-225); assay: flow cytometry on SW480 cells transiently transfected with human CLDN8
T2 construct: whole, on cells
T2 sequence (looked up): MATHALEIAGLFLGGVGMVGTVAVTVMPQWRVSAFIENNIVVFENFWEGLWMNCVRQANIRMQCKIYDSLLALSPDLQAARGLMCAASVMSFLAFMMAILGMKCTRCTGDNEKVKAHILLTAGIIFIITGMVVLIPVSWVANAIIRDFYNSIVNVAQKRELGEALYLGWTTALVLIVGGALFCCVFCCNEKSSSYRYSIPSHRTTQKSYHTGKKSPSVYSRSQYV
Protocol: (§1) Hybridomas or mAbs binding was determined with a FACScan fluorescence-activated cell sorter (Quanta apparatus, Beckman Coulter). Cells were seeded in 25 cm² flasks (2×10⁵ cells/flask). After a 48-hour rest, one million cells were pelleted, Washed with PBS-1% BSA and incubated with hybridomas or mAbs, on ice for 1 h. After washing, an appropriate anti-mouse FITC conjugated monoclonal antibody ((1:60 dilution; (Invitrogen) was added (on ice for 45 mn) to detect the primary antibodies. Direct incubation of cells with the secondary antibody was used for background measurements (negative control).
(§2) After transitory transfection on SW480 cells of human cDNA clone of CLDN8 (sc320974, Origene technologies, USA) and murine cDNA clone of CLDN1 (IRAVp968A105D, LifeScience), we analysed by FACs cross-reactivity of 6F6C3 mAb.

[3] = molecular target: T3, murine CLDN1 (murine, UniProt O88551 1-211); assay: flow cytometry on SW480 cells transiently transfected with murine CLDN1
T3 construct: whole, on cells; also called mCLDN1
T3 sequence (looked up): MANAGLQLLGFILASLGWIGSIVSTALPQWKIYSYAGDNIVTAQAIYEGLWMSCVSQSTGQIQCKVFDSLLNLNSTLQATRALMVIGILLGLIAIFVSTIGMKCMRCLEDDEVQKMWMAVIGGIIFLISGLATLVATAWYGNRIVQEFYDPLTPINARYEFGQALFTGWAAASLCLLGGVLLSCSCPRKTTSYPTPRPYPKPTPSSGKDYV
Protocol: as §1, §2

Measured: binding result

B1: 6F6C3 mAb (antibody, V domains shown)
VH: QIQLVQSGPELKKPGETVRISCKASGYTFTTSGMQWLQKMPGKGLKWIGWINTHFGEPKYAEDFKGRFAFSLETSASTAYLQISNLKNEDTATYFCAGAGYYGSRYFDVWGAGTTVTVSS
VL: DIVMTQSQKFMSTSVGDRVSITCKASQNVGTAVAWYQQKPGQSPKLLIYSASNRYTGVPDRFTGSGSGTDFTLTISNMQSEDLADYFCQQYSSYPLTFGGGTKLEIK
notes: Mouse hybridoma monoclonal antibody, IgG3 heavy chain and kappa light chain; also called mAb6F6C3; MAb 6F6C3
no binding (tested: 10 µg/mL): [1] | [2] | [3]
